Assay results from patent US7173007.

Biological target: T1, recombinant full-length hCAP18/LL-37 (residues 31-170)
T1 chain: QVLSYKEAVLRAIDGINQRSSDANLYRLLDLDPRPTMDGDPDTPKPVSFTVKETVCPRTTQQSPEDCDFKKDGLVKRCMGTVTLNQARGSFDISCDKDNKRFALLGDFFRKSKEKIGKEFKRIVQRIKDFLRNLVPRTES

B1: human neutrophil elastase (Calbiochem) (protein)
chain: IVGGRRARPHAWPFMVSLQLRGGHFCGATLIAPNFVMSAAHCVANVNVRAVRVVLGAHNLSRREPTRQVFAVQRIFENGYDPVNLLNDIVILQLNGSATINANVQVAQLPAQGRRLGNGVQCLAMGWGLLGRNRGIASVLQELNVTVVTSLCRRSNVCTLVRGRQAGVCFGDSGSPLVCNGLIHGIASFVRGGCASGLYPDAFAPVAQFVNWIDSIIQ
proteolytic processing of hCAP18/LL-37 (SDS-PAGE and immunoblot): Elastase treatment generated a band migrating at the same size as synthetic LL-37, and a band at 14 kDa
